This note sets out measurements from article doi:10.1101/2025.11.19.689067 (bioRxiv, 2025).

Holding throughout (test): bead-based binding assay (Luminex)
Experiment [1] addresses DENV2 NS1 wing-Halotag (residues 30-174) (dengue virus serotype 2).
The target of experiment [2] is DENV2 NS1 β-ladder-Halotag (residues 178-352) (dengue virus serotype 2).
Experiment [3] concerns the target T1, DENV2 NS1 (recombinant, biotinylated, on Luminex beads) (dengue virus serotype 2, UniProt P29990 776-1127).
T1 sequence: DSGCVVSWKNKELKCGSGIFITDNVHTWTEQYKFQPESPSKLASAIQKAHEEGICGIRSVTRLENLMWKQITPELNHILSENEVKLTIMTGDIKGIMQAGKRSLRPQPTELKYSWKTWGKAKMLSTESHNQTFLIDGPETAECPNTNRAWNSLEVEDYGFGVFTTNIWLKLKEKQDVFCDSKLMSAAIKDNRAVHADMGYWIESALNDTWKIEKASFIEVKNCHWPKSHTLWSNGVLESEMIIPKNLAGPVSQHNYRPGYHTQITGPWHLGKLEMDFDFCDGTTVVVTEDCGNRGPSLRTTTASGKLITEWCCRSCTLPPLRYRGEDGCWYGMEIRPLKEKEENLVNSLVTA
The note with it: both partners purified.

As to “EFNB1 RBD-Fc fusion protein (from UniProt P98172 28-164)”, the results for the fold relative binding (EFNB1 Fc over Gluc Fc) in experiment [1] and in experiment [2] were 50 fold and 15 fold, respectively.

B1: EFNB1 RBD-Fc fusion protein (Fc fusion)
chain: LAKNLEPVSWSSLNPKFLSGKGLVIYPKIGDKLDIICPRAEAGRPYEYYKLYLVRPEQAAACSTVLDPNVLVTCNRPEQEIRFTIKFQEFSPNYMGLEFKKHHDYYITSTSNGSLEGLENREGGVCRTRTMKIIMKV
As for B1, the “fold binding over the Gluc-Fc negative control” value in experiment [3] was 40 fold.
